Experimental data taken from patent publication US20210253725A1 (BIONTECH, published 2021).

T1: CD27 expressed on the cell surface (HT1080_CD27 cells) (human, UniProt P26842 20-260)
T1 sequence (looked up): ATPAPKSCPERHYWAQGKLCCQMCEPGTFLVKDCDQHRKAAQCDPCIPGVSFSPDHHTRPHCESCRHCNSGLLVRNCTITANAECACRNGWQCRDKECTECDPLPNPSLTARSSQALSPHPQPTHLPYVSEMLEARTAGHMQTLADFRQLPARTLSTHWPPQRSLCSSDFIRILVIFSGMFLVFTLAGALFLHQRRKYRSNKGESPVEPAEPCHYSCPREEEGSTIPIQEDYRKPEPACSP

T2: CD27 protein (His-tagged, Sino Biological Inc. 10039-H08B1) (human, UniProt P26842 20-192)
T2 construct: bought; coated onto ELISA plates; also called human CD27; recombinant protein; not shown: His tag
T2 sequence (looked up): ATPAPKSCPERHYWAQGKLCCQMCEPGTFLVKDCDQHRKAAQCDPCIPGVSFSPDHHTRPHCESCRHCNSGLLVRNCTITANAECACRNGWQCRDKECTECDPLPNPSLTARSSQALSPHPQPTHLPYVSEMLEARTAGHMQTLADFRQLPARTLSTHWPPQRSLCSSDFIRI

B1: P018.S.09.A.A05 (antibody, V domains shown)
VH: QSVEESGGRLVTPGTPLTLTCTVSGFSLSSYAMSWVRQAPGKGLEWIGYIWSGGTTDYASWAKGRFTISKTSTTVDLKITDPTTEDTATYFCARGLGDRGSSDYYMPLKLWGQGTLVTVSS
VL: AAVLTQTPSPVSAAVGGTVTINCQASEDIESYLAWYQQKPGQPPKLLIYSTSNLASGVSSRFRGSGSGTQLTLTISDLESADAATYYCQCTYDGSSAVWGAFGGGTEVVVK
notes: V regions on human Ig constant parts; also called AB27_145
B2: P018.S.01.A.G06 (antibody, V domains shown)
VH: QSLEESGGGLFKPTDTLTLTCTVSGIDLSRYAMGWVRQAPGKGLEYIGIISVGGGTYYANWIKGRFTISSTSTTVDLKITSPTTEDTATYFCARSPYASTSASAFNLWGPGTLVTVSS
VL: AFELTQTPSSVEAAVGGTVTIKCQASQSIYSYLSWYQQKPGQPPKLLIYEASKLASGVPSRFSGSGSGTQFTLTISDLESADAATYYCQSYSNTNTNTFGGGTEVVVK
notes: V regions on human Ig constant parts; also called AB27_24
B3: P018.S.06.A.F04 (antibody, V domains shown)
VH: QQQLEESGGGLVKPEGSLTLTCKASGFTLSSYLMCWVRQAPGKGLELIGCIGTYSGATYYGSWAKDRFTIAKTSSTTVTLQMTSLTAADTATYFCARDYNFALWGPGTLVTVSS
VL: AIVMTQTPSSKSVPVGDTVTINCQASESVYNNNYLSWFQQKPGQPPKLLIYGASTLTSGVPSRFKGSGSGTQFTLTISDVVSDDAATYYCAGYKSSWTDGNAFGGGTEVVVK
notes: V regions on human Ig constant parts; also called AB27_109
B4: P018.S.04.A.C05 (antibody, V domains shown)
VH: QSVEESGGRLVTPGTPLTLTCTVSGFSLNYYSMAWVRQVPGEGLEWIGTINTGGGTYYASWAKGRFTISKTSTTVDLKMTSLTAADTATYFCARSDGTGITYYNLWGQGALVTVSS
VL: ALVMTQTASPVSAAVGGTVTINCQASETIYSNLAWYQQKQGQPPKLLIYRASNLASGVPSRFSGSESGTQFTLTISGVQSDDAATYYCQGYYNTGITGFGGGTEVVVK
notes: V regions on human Ig constant parts; also called AB27_70
B5: P018.S.06.A.E04 (antibody, V domains shown)
VH: QEQLEESGGDLVQPEGSLTLTCTVSGFSFDSNYWICWVRQAPGKGPEWIACIMTGDGSIYYATWAKGRFTISKTSSTTVTLQMTSLTAADTATYFCARGYDGIHGGDNYGHVFNLWGPGTLVTVSS
VL: AFELTQTPFSVSAVVGGTVTINCQASENIYTLLAWYQQKSGQPPKLLIYRASTLTSGVPSRFKGSGSGTQFTLTISDLESADAATYYCQGYYVDSGNTFGGGTEVVVK
notes: V regions on human Ig constant parts; also called AB27_106
B6: P018.S.03.A.H02 (antibody, V domains shown)
VH: QSLEESGGRLMTPGGSLTLTCTVSGFSLSDYNMQWVRQAPGEGLEWIGIISLGGTTDYANWVKGRFTISKTSTTVDLKMTSLTASDTATYFCARDPAGGNWAELDLWGQGTLVTVSS
VL: DIVMTQTPASVSEPVGGTVTIKCQASQSISSWLSWFQQKPGQPPKLLIYDASTLASGVPSRFKGSGSGTEFTLTISDLESADAATYYCQQGSTISNVDNAFGGGTEVVVK
notes: V regions on human Ig constant parts; also called AB27_60
B7: P018.S.03.A.F03 (antibody, V domains shown)
VH: QSLEESGGRLVTPGGSLTLTCTVSGIDLSSYAMGWVRQAPGKGLEYLGIIYTSNRTHYATWAKGRFTISKTSSTTVDLKATSLTTEDTATYFCGRYGRGSGGYYYGMDLWGPGTLVTVSS
VL: DIVMTQTPASVEAAVGGTVTIKCQASQSGDDYCSWYQQKPGQRPKLLIYAASTLASGVPSRFRGSRSGTEYTLTISDLESADAATYYCQNYCAGSGVCLGVAFGGGTEVVVK
notes: V regions on human Ig constant parts; also called AB27_54
B8: P018.S.06.A.C03 (antibody, V domains shown)
VH: QSLEESGGGLFQPGGSLTLTCKASGLDFSTNYYMCWVRQAPGKGLELIACISTSSGNTWYASWAKGRFTISKTSSTTVTLQMTSLTAADTATYFCARCDIVYVGYGYASRLDLWGQGTLVTVSS
VL: AQVLTQTPSPVSAAVGGTVTINCQASESVYNNNNLAWYQQKPGQPPKFLIYGASSLASGVPSRFKGSGSGTQFTLTISDLESDDAATYYCAGGGSTSVGAFGGGTEVVVK
notes: V regions on human Ig constant parts; also called AB27_101
B9: P018.S.03.A.H03 (antibody, V domains shown)
VH: QSLEESGGDLVKPEGSLTLTCTASGLDFSSSYWICWVRQAPGKGLEWIACIHAGSSGTTHYATWAKGRFTISKTSSTTVTLQMTSLTAADTATYFCARGAVYGGGSYDNFNLWGPGTLVTVSS
VL: AYDMTQTPASVEVAVGGTVTIKCQASQSIGTYLSWYQQKPGQPPKLLIYAASTLASGVQPRFKGSGSGTQFTLTISGVQSDDAATYYCQQGYSADNVANSFGGGTEVVVK
notes: V regions on human Ig constant parts; also called AB27_61
B10: P018.S.06.A.F03 (antibody, V domains shown)
VH: QSLEESGGDLVRPGASLTLTCTASGLSFSDRYWISWVRQAPGKGLEWIASIYTGSDGVADYATWAKGRVTISKTSSTTVTLQMTSLTAADTATYFCARDREYGSNTGVYSLWGPGTLVTVSS
VL: DVLMTQTPSSVSPAVGGTVTIKCQASQNIYSNLAWYQQKPGQRPKLLVYDASNLEYGVPSRFKGSGSGTEYTLTISDLESADAANYYCQCTYYGNNYITFGGGTEVVVR
notes: V regions on human Ig constant parts; also called AB27_108
B11: P018.S.09.A.A03 (antibody, V domains shown)
VH: QEQLVESGGGLVQPEGSLTLTCTASGFSFSSSYYMCWVRQAPGKGPEWIACIYTYSGDTDYANWAKGRFTISKTSSTTVTLQMTSLTAADTATYFCAKAGYGGYGYPIFNLWGPGTLVTVSS
VL: AFELTQTPSSVEAAVGGTVTIKCQASQSIGSSLAWYQQKPGQRPKLLMYYVSTLASGVSSRFKGSGSGTEFTLTISDLESADAATYYCQSYYGSGTTVFWAFGGGTEVVVK
notes: V regions on human Ig constant parts; also called AB27_144
B12: P018.S.04.A.E02 (antibody, V domains shown)
VH: QSVEESGGRLVTPGTPLTLTCTVSGFSLNNYDMNWVRQAPGKGLEWVGYIDTGGSAYYASWVNGRFTISKTSTTVELKMTSLTASDTATYFCARGYTHGYLWGQGTLVTVSS
VL: ALVMTQTPSSVSAAVGGTVTINCQASQNVYNNLAWYQQKPGQPPKLLIDSASTLASGVSSRFKGSGSGTEFTLTISDLESADAATYYCQSADWESSNFFWAFGGGTEVVVK
notes: V regions on human Ig constant parts; also called AB27_74
B13: P018.S.08.A.A01 (antibody, V domains shown)
VH: QSVEESGGRLVTPGTPLTLTCTVSGFSLNNYDMNWVRQAPGKGLEWVGYIDTGGSAYYANWVNGRFTISKTSTTVELKMTSLTASDTATYFCARGYIHGYLWGQGTLVTVSS
VL: ALVMTQTPSSVSAAVGGTVTINCQASQNVYNNLAWYQQRPGQPPELLIDSASTLASGVSSRFKGSGSGTEFTLTISDLESADAATYYCQSADWESSNFFWAFGGGTEVVVK
notes: V regions on human Ig constant parts; also called AB27_135
B14: P018.S.10.A.E04 (antibody, V domains shown)
VH: QSLEESGGDLVKPGASLTLTCTASGFSFSSSYWICWVRQAPGKGLEWVACISAPGSGSTFDASWAKGRFTISKTSSTTVTLQMTSLTAADTATYFCARFYAGGSGDYFDLWGPGTLVTVSS
VL: QIVMTQTPSSTSEPVGGTVSIKCQASQNIGSYLAWYQQKPGQPPKVLIYTTSDLASGVPSRFKGSGSGTQFTLTISDLESDDAATYYCLGVYGYSSDDVAFGGGTEVVVK
notes: V regions on human Ig constant parts; also called AB27_177
B15: P018.S.01.A.A05 (antibody, V domains shown)
VH: QEQLEESGGDRVQPEGSLTLTCTASGFSFSATYWICWVRQAPGKGLEWIACIFGRSSSDTYYASWAKGRFTISKTSSTTVTLQMTSLTAADTATYFCARGDSGHPYYYSFNLWGPGTLVTVSS
VL: AYDMTQTPASVEVAVGGTVTIKCQASQSIGGYLAWYQQKPGQPPKLLIYGASTLASGVPSRFRGSGSGTEFTLTISDLDSADAATYYCQCTHGTRSDWAFGGGTEVVVK
notes: V regions on human Ig constant parts; also called AB27_2
B16: P018.S.06.A.F06 (antibody, V domains shown)
VH: QSVEESGGRLVTPGTPLTLTCAASGFSLNSYVMSWVRQAPGKGLEWIGYIDYGGAPYYASWAKGRFTISKTSTTVELKITSPTIEDTGTYFCARGGYGGYVLVTALWGPGTLVTVSS
VL: DIVMTQTPASVSEPVGGTVTIKCQASENIYSYLAWYQQKPGQPPKLLIYQASTLASGVSSRFKGSGSGTQFTLTISDLESADAATYYCQTYYGGSTYGNGFGGGTEVVVE
notes: V regions on human Ig constant parts; also called AB27_110

What was measured:
[1] = target: T1, CD27 expressed on the cell surface …; experiment: cell-based or functional assay
[2] = target: T2, CD27 protein (His-tagged, Sino …); experiment: ELISA on coated His-tagged CD27
[3] = target: T1, CD27 expressed on the cell surface …; experiment: cellular binding assay, HT1080_CD27 cells
Further: test concentration or dose not given here.

Row | Binder | IL-8, cross-linked by F(ab')2 fragment [abs. corr.] [1] [abs. corr.] | IL-8 [abs. corr.] [1] [abs. corr.] | ELISA [abs. corr.] [2] [abs. corr.] | Cellular binding assay [RFU] [3] [RFU]
1 | B1 | 1.95 | 0.504 | 3.17 | 214
2 | B2 | 1.09 | 0.491 | 3.17 | 313
3 | B3 | 1.16 | 0.678 | 3.18 | 338
4 | B4 | 1.43 | 0.382 | 3.17 | 292
5 | B5 | 1.22 | 0.327 | 3.16 | 281
6 | B6 | 1.07 | 0.13 | 3.15 | 395
7 | B7 | 1.35 | 0.106 | 3.15 | 223
8 | B8 | 1.13 | 0.272 | 3.14 | 269
9 | B9 | 1.09 | 0.588 | 3.15 | 289
10 | B10 | 1.08 | 0.063 | 3.16 | 304
11 | B11 | 1.54 | 0.263 | 3.16 | 360
12 | B12 | 1.91 | 0.676 | 3.52 | 463
13 | B13 | 1.57 | 0.876 | 3.42 | 448
14 | B14 | 2.29 | 0.339 | 3.15 | 280
15 | B15 | 1.09 | 0.328 | 3.15 | 300
16 | B16 | 1.03 | 0.7 | 3.17 | 326
